Assay results published in US20260216366A1, “CONJUGATE AND USES THEREOF” (Full-Life Technologies UK Limited, priority 2022, published 2026).

B1: FAP-L007 (VHH)
VHH: QVQLLESGGGLVQPGGSLRLSCAASGFGFGNSLMSWVRRAPGKGLEWVSTIYPRGSFTDYADSVKGRFTISRDNSRNTLYLQMNSLRAEDTAVYYCATGWGRSSDYDPPGQGTLVTVSS
modifications: functional linker L007 conjugated to the sdAb, residue not stated; DOL 0.68
notes: also called FAP sdAb-linker L007 conjugate
B2: FAP-DOTAGA (VHH)
VHH: B1 VHH
modifications: DOTAGA chelator conjugated to the sdAb, residue not stated; DOL 0.42
notes: also called FAP sdAb conjugated with DOTAGA (control)

Tests used:
CLDN18.2 HEK293T cells = assay: In vivo SPECT imaging of 111In-labeled CLDN18.2 conjugates; parameters: species or system female athymic nude mice; settings: FIG. 4, 10 MBq/mouse i.v., over 48 hours, compared to the control group
Procedure: In vivo biodistribution of the CLDN18.2 conjugates was analyzed by SPECT imaging via ^111In labeling. Briefly, the CLDN18.2 conjugates were labeled by ^111In at 30° C. for 60 min and purification by NAP-5 column. followed by analysis of radioactive purity through radio-TLC and radio-HPLC on the same day of labelling. The release criteria for radio-labelled sample was ≥90% radiochemical purity.
For the imaging study, female athymic nude mice (approximately 6-8 weeks old) were each inoculated with 5×10^6 CLDN18.2 HEK293T cells via subcutaneous injection into the shoulder. When the tumor volume reached to about 200 to 300 mm^3, the animal was injected with the labeled conjugate at a dose of 10 MBq/mouse by a single bolus intravenous injection in tail vein. Animals were then subject to whole-body static SPECT followed by CT at different time points under isoflurane anaesthesia. […] In addition, the tumor/kidney ratio was increased around 5-10 folds compared to the control group.

[1] = Pharmacokinetic study of CLDN18.2-linker conjugates (serum ELISA, NCA); type: in vivo, BALB/c mice; settings: FIG. 2; CLDN18.2 conjugate of the named linker compared to the control group
Procedure: The in vivo pharmacokinetic profile of the CLDN18.2-linker conjugates was analyzed. Briefly, BALB/c mice were administered with the conjugates by intravenous injection at a dose of about 1 mg/kg. Then, whole blood of the animal was collected at different time points over 48 hours.
(§1) The whole blood was collected into a tube without anticoagulation and maintained at room temperature for more than 30 minutes, followed by centrifuge at approximately 5000 rpm at 4° C. for 5 minutes to obtain serum. Concentration of the conjugates in serum was then measured by ELISA using HRP-labeled goat anti-alpaca IgG VHH domain secondary antibody. The data was further analyzed using PK Solver software, and the […] (NCA) was used to evaluate the pharmacokinetic parameters, as shown in Table 7 and FIG. 2.

[2] = Pharmacokinetic study of FAP-linker conjugates (serum ELISA, NCA); type: in vivo, BALB/c mice; settings: FIG. 3; FAP conjugate of the named linker compared to the control group
Procedure: he in vivo pharmacokinetic profile of the FAP-linker conjugates was analyzed. Briefly, BALB/c mice were administered with the conjugates by intravenous injection at a dose of about 1 mg/kg. Then, whole blood of the animal was collected at different time periods over 48 hours.
as §1, with “centrifugated” for “centrifuge”, “8” for “7”, “3.” for “2.”

[3] = system: FAP expressing HEK293-hFAP cells; assay: In vivo SPECT imaging of 177Lu-labeled FAP conjugates; parameters: species or system female athymic nude mice; settings: FIG. 5, 30 MBq/mouse i.v., at different time points
Procedure: In vivo biodistribution of FAP conjugates was analyzed by SPECT imaging via ^177Lu labeling. Briefly, the FAP conjugates were labeled by ^177Lu with a molar activity of 1 MBq/μg at 37° C. for 60 min and purified by size-exclusion chromatography, followed by analysis of radioactive purity through radio-TLC and radio-HPLC on the same day of labelling. The release criteria for radio-labelled sample was ≥90% radiochemical purity.
For the imaging study, female athymic nude mice (approximately 6-8 weeks old) were each inoculated with 5×10^6 FAP expressing HEK293-hFAP cells via subcutaneous injection into the shoulder. When the tumor volume reached to about 150 to 250 mm^3, the animal was injected with the labeled conjugate at a dose of 30 MBq/mouse by a single bolus intravenous injection in tail vein. Animals were then subject to whole-body static SPECT followed by CT at different time points under isoflurane anaesthesia.

human FAP-hFc = target: T1, human FAP-hFc (human, UniProt Q12884 26-760); assay: ELISA, plate coated with human FAP-hFc, HRP anti-sdAb detection
T1 construct: Coated on the ELISA plate as human FAP-hFc; also called FAP-alpha; not shown: human Fc (hFc)
T1 sequence (looked up): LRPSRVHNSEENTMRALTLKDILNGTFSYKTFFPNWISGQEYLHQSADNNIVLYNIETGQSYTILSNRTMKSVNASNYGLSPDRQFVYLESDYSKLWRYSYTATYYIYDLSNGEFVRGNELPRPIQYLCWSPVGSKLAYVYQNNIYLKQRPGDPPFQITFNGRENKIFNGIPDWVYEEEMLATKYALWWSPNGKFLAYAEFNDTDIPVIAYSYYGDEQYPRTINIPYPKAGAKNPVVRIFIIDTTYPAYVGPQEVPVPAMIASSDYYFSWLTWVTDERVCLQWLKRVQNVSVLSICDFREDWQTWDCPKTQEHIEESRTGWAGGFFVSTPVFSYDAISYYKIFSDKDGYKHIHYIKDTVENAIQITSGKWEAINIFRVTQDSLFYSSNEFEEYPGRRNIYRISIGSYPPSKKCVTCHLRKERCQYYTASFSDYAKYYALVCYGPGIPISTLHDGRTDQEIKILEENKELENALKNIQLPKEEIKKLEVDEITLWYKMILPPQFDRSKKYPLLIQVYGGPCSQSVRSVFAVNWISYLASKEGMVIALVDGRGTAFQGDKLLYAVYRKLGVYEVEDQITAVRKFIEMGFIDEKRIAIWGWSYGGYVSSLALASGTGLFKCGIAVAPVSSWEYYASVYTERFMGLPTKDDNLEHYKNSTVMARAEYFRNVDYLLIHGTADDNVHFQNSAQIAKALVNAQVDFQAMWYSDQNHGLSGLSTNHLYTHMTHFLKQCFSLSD
Procedure: Binding affinities of the prepared conjugates with tumor antigen was evaluated by ELISA. […] On the next day, the plate was washed by 0.05% PBST and blocked by 10% StartingBlock buffer (Thermo, #37538) at room temperature for 1 hr. Then, 100 μL of serial diluted conjugate samples in 1% StartingBlock buffer was added to the plate. The plate was further incubated at room temperature for 2 hrs under shaking at 100 rpm and washed by 0.05% PBST. Then 100 μL 0.4 μg/mL HRP-conjugated anti-sdAb secondary antibody (Jackson, #128-035-232) was added and subject to 1 hr incubation at room temperature under shaking at 100 rpm. The plate was then washed by 0.05% PBST and developed using TMB solution (KPL, #5120-00820).

Row | Molecule | retention of the CLDN18.2 conjugates in tumor (CLDN18.2 HEK293T cells) | blood circulation of the CLDN18.2 conjugates [1] | blood circulation of the FAP conjugates [2] | retention of the FAP conjugates in tumor [3] | EC50 (human FAP-hFc) [nM]
1 | O=C(O)CN1CCN(CC(=O)O)CCN(C(CCC(=O)NCC(=O)NC(CCCCNC(=O)CCCc2ccc(I)cc2)C(=O)NCc2ccc(N=C=S)cc2)C(=O)O)CCN(CC(=O)O)CC1 (centres unmarked) [L009] | significantly increased retention | significantly prolonged blood circulation | – | – | –
2 | O=C(O)CCC(NC(=O)C(CCCCNC(=O)CCCc1ccc(I)cc1)NC(=O)CNC(=O)CCC(C(=O)O)N1CCN(CC(=O)O)CCN(CC(=O)O)CCN(CC(=O)O)CC1)C(=O)NCc1ccc(N=C=S)cc1 (centres unmarked) [L007] | significantly increased retention | significantly prolonged blood circulation | significantly prolonged blood circulation | increasing retention | –
3 | B1 | – | – | – | – | 0.0603
4 | B2 | – | – | – | – | 0.0553
